Experimental data taken from patent publication US20230357420A1 (VILLARIS THERAPEUTICS, published 2023).

Key:
Neudesin = target: T1, Neudesin (human, UniProt Q9UMX5 32-172); experiment: Retrogenix cell microarray
T1 construct: whole, on cells; Secreted protein; the tether is not described; also called NENF; neudesin neurotrophic factor (on transfected cells)

CILP2 = target: T2, CILP2 (human, UniProt Q8IUL8 21-1156); experiment: Retrogenix cell microarray
T2 construct: whole, on cells; Secreted protein; tether not described; also called cartilage intermediate layer protein 2 (on transfected cells)
T2 sequence (looked up): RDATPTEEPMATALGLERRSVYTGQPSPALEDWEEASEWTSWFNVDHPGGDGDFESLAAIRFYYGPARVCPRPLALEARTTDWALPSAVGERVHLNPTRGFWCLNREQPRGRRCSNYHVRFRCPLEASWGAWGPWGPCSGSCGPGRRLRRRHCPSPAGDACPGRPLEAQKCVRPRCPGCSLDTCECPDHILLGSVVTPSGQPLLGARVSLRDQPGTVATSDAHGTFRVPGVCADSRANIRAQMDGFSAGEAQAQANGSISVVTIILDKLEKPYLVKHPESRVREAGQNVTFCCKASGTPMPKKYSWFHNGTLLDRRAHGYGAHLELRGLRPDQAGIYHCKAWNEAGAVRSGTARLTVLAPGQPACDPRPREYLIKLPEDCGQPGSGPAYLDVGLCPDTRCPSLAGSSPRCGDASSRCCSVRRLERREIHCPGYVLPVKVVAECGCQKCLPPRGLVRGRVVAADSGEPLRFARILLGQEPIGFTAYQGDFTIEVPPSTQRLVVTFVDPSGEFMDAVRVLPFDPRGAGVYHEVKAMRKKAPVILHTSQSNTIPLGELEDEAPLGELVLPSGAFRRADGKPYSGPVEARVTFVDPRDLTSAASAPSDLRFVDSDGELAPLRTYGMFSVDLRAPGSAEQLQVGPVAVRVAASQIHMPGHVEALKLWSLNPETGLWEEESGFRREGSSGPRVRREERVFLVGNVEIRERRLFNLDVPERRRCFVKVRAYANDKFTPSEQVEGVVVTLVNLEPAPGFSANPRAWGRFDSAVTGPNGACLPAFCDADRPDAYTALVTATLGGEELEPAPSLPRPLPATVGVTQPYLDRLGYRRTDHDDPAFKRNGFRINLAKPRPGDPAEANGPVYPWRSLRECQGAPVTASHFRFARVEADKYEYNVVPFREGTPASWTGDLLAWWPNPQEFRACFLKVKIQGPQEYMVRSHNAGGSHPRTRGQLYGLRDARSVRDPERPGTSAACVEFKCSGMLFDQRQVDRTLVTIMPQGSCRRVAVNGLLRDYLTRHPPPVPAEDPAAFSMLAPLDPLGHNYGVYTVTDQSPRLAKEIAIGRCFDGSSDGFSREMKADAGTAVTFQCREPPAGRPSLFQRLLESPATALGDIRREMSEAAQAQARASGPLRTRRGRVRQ

Rhesus CD122 = target: T3, Rhesus CD122 (rhesus monkey, UniProt Q38J85 27-551 (cynomolgus entry)); experiment: flow cytometry (FACS) on rhIL15Rβ-transfected CHO-K1 cells, anti-human IgG-FITC, GeoMFI
T3 construct: also called rhCD122 on cells
T3 sequence: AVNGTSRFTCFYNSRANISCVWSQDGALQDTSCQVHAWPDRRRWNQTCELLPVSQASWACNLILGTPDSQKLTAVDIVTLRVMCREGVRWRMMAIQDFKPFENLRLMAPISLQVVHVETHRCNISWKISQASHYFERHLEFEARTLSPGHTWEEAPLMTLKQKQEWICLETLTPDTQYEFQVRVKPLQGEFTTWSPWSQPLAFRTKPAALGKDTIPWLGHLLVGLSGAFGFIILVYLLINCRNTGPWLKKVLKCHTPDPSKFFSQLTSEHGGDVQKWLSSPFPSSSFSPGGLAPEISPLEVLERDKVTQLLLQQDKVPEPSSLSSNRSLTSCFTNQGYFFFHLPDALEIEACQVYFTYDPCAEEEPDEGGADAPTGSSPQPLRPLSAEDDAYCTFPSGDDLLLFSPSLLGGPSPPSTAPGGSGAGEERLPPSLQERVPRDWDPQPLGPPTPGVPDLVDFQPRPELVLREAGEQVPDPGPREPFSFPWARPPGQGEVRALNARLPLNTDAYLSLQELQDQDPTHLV
Procedure: Purified IgGs were tested in FACs for binding to human and rhesus CD122 expressed on CHO-K1 stable cell lines and CHO-K1 wild-type cells. The IgG samples were titrated in three-fold serial dilutions starting at 500 nM to […]. Binding of IgGs was detected with a mouse anti-human IgG conjugated to FITC. Results were analyzed by examining the Mean Fluorescence Intensity (MFI) of 10000 cells per sample in the BL-1 channel detector of a flow cytometer (AttuneTM NxT Acoustic Focusing Cytometer, Invitrogen/ ThermoFisher Scientific).

CD20 = target: T4, CD20 (human, UniProt P11836 1-297); experiment: Retrogenix cell microarray: fixed HEK293 cells reverse-transfected with the target, AF647 anti-human IgG detection
T4 construct: whole, on cells; Control target; also called MS4A1
T4 sequence (looked up): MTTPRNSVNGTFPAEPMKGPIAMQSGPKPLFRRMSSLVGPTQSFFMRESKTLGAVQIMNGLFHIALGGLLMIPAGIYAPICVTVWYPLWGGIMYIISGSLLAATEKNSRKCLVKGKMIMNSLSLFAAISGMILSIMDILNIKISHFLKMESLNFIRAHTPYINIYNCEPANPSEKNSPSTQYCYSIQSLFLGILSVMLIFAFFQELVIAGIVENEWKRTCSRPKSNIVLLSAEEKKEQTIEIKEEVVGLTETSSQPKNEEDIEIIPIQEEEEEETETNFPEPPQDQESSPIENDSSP
Procedure: (§1) Slides were analyzed as above.
(§2) The plasmid samples for control and potential target receptors were then re-arrayed onto new chips for repeat analyses in duplicate. […] Control experiments using the same cells but no primary antibody (FIG. .

EGFR = target: T5, EGFR (human, UniProt P00533 25-1210); experiment: as above
T5 construct: whole, on cells; Control target on the confirmation array
Procedure: as §1, §2

T1 sequence (Q9UMX5 32-172): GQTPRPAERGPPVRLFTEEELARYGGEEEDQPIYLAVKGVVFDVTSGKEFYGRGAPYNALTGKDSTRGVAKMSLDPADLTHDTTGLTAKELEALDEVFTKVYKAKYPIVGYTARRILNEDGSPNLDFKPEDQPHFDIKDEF

B1: IgG1-MIKβ1 (humanized) (antibody, V domains shown)
VH: EVQLLESGGGLVQPGGSLRLSCAASGFSVTSYGVHWIRQAPGKGLEWLGVIWSGGSTDYNAAFISRLTISKDNSKNTVYFQMNSLQAEDTAIYYCARAGDYNYDGFAYWGQGTLVTVSS
VL: DIVLTQSPSSLSASVGDRVTITCSGSSSVSFMYWYQQRPGKAPRLLIYDTSNLASGVPSRFSGSGSGTSYTFTISSLQPEDIATYYCQQWSTYPLTFGQGTKVEVK
notes: also called VillMab-1; VillMAB-1
Neudesin
  binding result: no binding
CILP2
  binding result: no binding
Rhesus CD122
  EC50 (read off the curve): ~0.7 nM
CD20
  binding result: no binding (tested: 5 µg/ml)
EGFR
  binding result: no binding (tested: 5 µg/ml)
